In assay [1] the target is T1, human PDGF-AA (human, UniProt P04085 87-211, limits assumed). Description: ELISA. For orientation: An ELISA detects its analyte on a solid surface through an enzyme-linked reagent.
Assay [2] concerns the target T2, human PDGF-BB (human, UniProt P01127 82-190). Nature of the assay: cell-based or functional assay.
For assay [3], the target named is T1, human PDGF-AA. Description: SPR (Biacore), antibody captured. The protocol:
(§1) In order to test the specificity and cross species reactivity, the binding affinities of three MOR8457 IgG variants, MOR8457-IKR-hIgG1-3m, MOR8457-mIgG1, and MOR8457-GL-hIgG1-3m, to different human PDGF ligands, including human PDGF-AA, -AB, -DD, as well as rat PDGF-BB (all obtained from R&D systems, Minneapolis, Minn.) and mouse PDGF-BB (Invitrogen, Carlsbad, Calif.) were tested. Briefly, anti-human or anti-mouse IgG (GE Healthcare) antibodies were immobilized in adjacent flow cells of a CM5 sensor chip between 8000-10,000 resonance units (RU) using amine coupling as directed by the manufacturer. Antibodies were diluted into PBS-NET (10 mM Phosphate pH 7.4, 287 mM NaCl, 2.7 mM KCl, 3.2 mM EDTA, 0.01% Tween 20) to 1 μg/mL and injected independently over the respective anti-human or anti-mouse surface for 10 seconds resulting in a stable anti-PDGF surface between 50-100 RU. PDGF proteins were diluted to 1 nM in PBS-NET and serially diluted two-fold to 0.25 nM. Each concentration of PDGF was then injected over the antibody surface for 2 minutes at a flow rate of 100 μl/min. The complex was allowed to dissociate for 10 minutes. The surface was regenerated with a 30 second injection of 10 mM magnesium chloride leaving the surface ready for another round of anti-PDGF antibody capture and PDGF binding kinetics. Kinetic data were double referenced (Myszka et al., 1999, J. Mol. Recognit. 12 279) using scrubber2 software (Bio-Logic Software), then fit to a 1:1 binding model using Biacore evaluation software version 4.1. The results shown were an average of three independent binding studies.
(In SPR one partner is held on a chip, and binding of the other changes the refractive index at the surface.)

Assay [4] has as its target human PDGF-DD (human, UniProt Q9GZP0 250-370, limits assumed). Description: SPR (Biacore), antibody captured. The protocol:
as §1

Assay [5] deals with T2, human PDGF-BB. Nature of the assay: SPR (Biacore 2000), antibody captured via anti-mouse IgG, PDGF injected. The protocol: (§2) Anti-human (A-D, I-K) or anti-mouse (E-H) IgG antibodies were immobilized in flow cells of CM5 sensor chips. 1 μg/mL of MOR8457-IKR-hIgG1-3m (A-D), MOR8457-mIgG1 (E-H) or MOR8457-GL-hIgG1-3m (I-K) was injected independently over the respective anti-human or anti-mouse surface for 10 seconds resulting in a stable anti-PDGF surface between 50-100 RU. Different concentration of PDGF proteins, 0.25, 0.5, and 1 nM, was then injected over the antibody surface for 2 minutes at a flow rate of 100 μl/min for binding. The complex was allowed to dissociate for 10 minutes. The surface was regenerated with a 30 second injection of 10 mM magnesium chloride leaving the surface ready for another round of anti-PDGF antibody capture and PDGF binding kinetics. Each of these three antibodies bound tightly to human (A, E, I), mouse (B, F, J) and rat (C, G, K) PDGF-BB. MOR8457-IKR-hIgG1-3m (D) and MOR8457-mIgG1 (H) bound to human PDGF-AB. Each sensorgram shown is one representative of three independent experiments.
as §1, with “kinetics.” for “kinetics. Kinetic data were double referenced (Myszka et al., 1999, J. Mol. Recognit. 12 279) using scrubber2 software (Bio-Logic Software), then fit to a 1:1 binding model using Biacore evaluation software version 4.1. The results shown were an average of three independent binding studies.”

Assay [6] deals with T3, mouse PDGF-BB (mouse, UniProt P31240 82-190).
T3 construct: also called muBB; Mu PDGF-BB
The description is as above. The protocol:
as §2
as §1, with “kinetics.” for “kinetics. Kinetic data were double referenced (Myszka et al., 1999, J. Mol. Recognit. 12 279) using scrubber2 software (Bio-Logic Software), then fit to a 1:1 binding model using Biacore evaluation software version 4.1. The results shown were an average of three independent binding studies.”

For assay [7], the target named is T4, rat PDGF-BB (rat, UniProt Q05028 74-182).
T4 construct: also called ratBB
The assay is described as above. The protocol: as §2
as §1, with “kinetics.” for “kinetics. Kinetic data were double referenced (Myszka et al., 1999, J. Mol. Recognit. 12 279) using scrubber2 software (Bio-Logic Software), then fit to a 1:1 binding model using Biacore evaluation software version 4.1. The results shown were an average of three independent binding studies.”

The target of assay [8] is T5, human PDGF-AB (human, UniProt P04085 87-211, limits assumed).
T5 construct: Heterodimer of PDGF-A and PDGF-B, bought; also called huAB; Hu PDGF-AB
The description is as above. The protocol:
as §2
as §1, with “kinetics.” for “kinetics. Kinetic data were double referenced (Myszka et al., 1999, J. Mol. Recognit. 12 279) using scrubber2 software (Bio-Logic Software), then fit to a 1:1 binding model using Biacore evaluation software version 4.1. The results shown were an average of three independent binding studies.”

The target of assay [9] is T2, human PDGF-BB. Description: SPR (Biacore 2000), antibody captured via anti-mouse IgG, PDGF injected; off rate beyond instrument limit. The protocol: as §2
as §1, with “kinetics.” for “kinetics. Kinetic data were double referenced (Myszka et al., 1999, J. Mol. Recognit. 12 279) using scrubber2 software (Bio-Logic Software), then fit to a 1:1 binding model using Biacore evaluation software version 4.1. The results shown were an average of three independent binding studies.”

In assay [10] the target is T3, mouse PDGF-BB. The assay is described as above. The protocol:
as §2
as §1, with “kinetics.” for “kinetics. Kinetic data were double referenced (Myszka et al., 1999, J. Mol. Recognit. 12 279) using scrubber2 software (Bio-Logic Software), then fit to a 1:1 binding model using Biacore evaluation software version 4.1. The results shown were an average of three independent binding studies.”

Assay [11] addresses T4, rat PDGF-BB. The assay is described as above. The protocol:
as §2
as §1, with “kinetics.” for “kinetics. Kinetic data were double referenced (Myszka et al., 1999, J. Mol. Recognit. 12 279) using scrubber2 software (Bio-Logic Software), then fit to a 1:1 binding model using Biacore evaluation software version 4.1. The results shown were an average of three independent binding studies.”

In assay [12] the target is T5, human PDGF-AB. Described as above. The protocol: as §2
as §1, with “kinetics.” for “kinetics. Kinetic data were double referenced (Myszka et al., 1999, J. Mol. Recognit. 12 279) using scrubber2 software (Bio-Logic Software), then fit to a 1:1 binding model using Biacore evaluation software version 4.1. The results shown were an average of three independent binding studies.”

Assay [13] has as its target T2, human PDGF-BB. Description: SPR (Biacore) competition in solution: MOR8457-mIgG1 serially diluted, mixed with human PDGF-BB, 20 h at 2-8 C, mixture injected over PDGFRβ-hIgG1 captured on anti-human IgG; blocked partner PDGFRβ-hIgG1. The protocol: MOR8457-mIgG1 was serially diluted in PBS then mixed with […] of human PDGF-BB and incubated for 20 hours at 2-8° C. to reach equilibrium as indicated by the [brackets]. Each MOR8457-mIgG1 and PDGF-BB dilution mixture was then injected over the surface of PDGFRβ-hIgG1 captured by anti-human IgG1 on a CM5 chip. […] Data shown are from one representative experiment of two independent experiments.
Because of the complexity of the 2:1 binding stoichiometry, and also to avoid any potential artifacts introduced by sequential binding on the chip, the competitive binding was further confirmed by neutralizing PDGF-BB with MOR8457 in solution as illustrated by the diagram shown in FIG. 5A. MOR8457-mIgG1 was serially diluted in PBS then mixed with […] of human PDGF-BB and incubated for 20 hours at 2-8° C. to reach equilibrium. Each MOR8457-mIgG1 and PDGF-BB dilution mixture shown between [brackets] in FIG. 5A, was then injected over the surface of PDGFRβ-hIgG1 captured by anti-human IgG1 on a CM5 chip. FIG. 5B depicts a graph showing the concentration response curve of MOR8457 inhibition.

Where only a bound is given, the exact number is not on record here.

T2 sequence (P01127 82-190 limits assumed): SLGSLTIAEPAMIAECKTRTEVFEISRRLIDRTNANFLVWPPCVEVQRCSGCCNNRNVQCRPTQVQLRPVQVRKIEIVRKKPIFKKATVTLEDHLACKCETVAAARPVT
T3 sequence (P31240 82-190 limits assumed): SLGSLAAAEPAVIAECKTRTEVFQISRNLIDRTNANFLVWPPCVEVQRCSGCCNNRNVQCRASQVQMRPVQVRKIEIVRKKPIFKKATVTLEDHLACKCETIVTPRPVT
T5 sequence (chain, as listed by the source limits assumed, chain 2 of 2, other chains not shown): as the sequence (P01127 82-190 limits assumed) above
T4 sequence (Q05028 74-182 limits assumed): as the sequence (P31240 82-190 limits assumed) above, with I83V, I102V counted along it
human PDGF-DD, sequence (Q9GZP0 250-370 limits assumed): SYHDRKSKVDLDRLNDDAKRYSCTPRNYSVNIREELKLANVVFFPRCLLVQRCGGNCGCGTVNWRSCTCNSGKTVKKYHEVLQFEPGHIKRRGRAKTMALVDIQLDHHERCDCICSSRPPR

B1: MOR8457-Fab (Fab, V domains shown)
VH: EVQLVESGGGLVQPGGSLRLSCAASGFTFSSYAMSWVRQAPGKGLEWVSYISDDGSLKYYADSVKGRFTISRDNSKNTLYLQMNSLRAEDTAVYYCARHPYWYGGQLDLWGQGTLVTVSS
VL: SYELTQPPSVSVAPGQTARISCSGDSLGSYFVHWYQQKPGQAPVLVIYDDSNRPSGIPERFSGSNSGNTATLTISGTQAEDEADYYCSAFTHNSDVFGGGTKLTVL
notes: Fab format (HuCAL GOLD, expressed in E. coli); also called Fab-MOR8457
For B1, the binding result in assay [1] is reported as “no binding”. Further, the “IC50, inhibition of PDGF-BB-induced PDGF-Rβ Tyr751 phosphorylation (PAE PDGF-Rβ cells)” value in assay [2] turned out to be 0.32 nM.

B2: MOR8457-mIgG1 (antibody)
heavy: EVQLVESGGGLVQPGGSLRLSCAASGFTFSSYAMSWVRQAPGKGLEWVSYISDDGSLKYYADSVKGRFTISRDNSKNTLYLQMNSLRAEDTAVYYCARHPYWYGGQLDLWGQGTLVTVSSAKTTPPSVYPLAPGSAAQTNSVTLGCLVKGYFPEPVTVTWNSGSLSSGVHTFPAVLQSDLYTLSSSVTVPSSTWPSETVTCNVAHPASSTKVDKKIVPRDCGCKPCICTVPEVSSVFIFPPKPKDVLTITLTPKVTCVVVDISKDDPEVQFSWFVDDVEVHTAQTQPREEQFNSTFRSVSELPIMHQDWLNGKEFKCRVNSAAFPAPIEKTISKTKGRPKAPQVYTIPPPKEQMAKDKVSLTCMITDFFPEDITVEWQWNGQPAENYKNTQPIMDTDGSYFVYSKLNVQKSNWEAGNTFTCSVLHEGLHNHHTEKSLSHSPGK
light: SYELTQPPSVSVAPGQTARISCSGDSLGSYFVHWYQQKPGQAPVLVIYDDSNRPSGIPERFSGSNSGNTATLTISGTQAEDEADYYCSAFTHNSDVFGGGTKLTVLQPKSSPSVTLFPPSSEELETNKATLVCTITDFYPGVVTVDWFTKVDGTPVTQGMETTQPSKQSNNKYMASSYLTLTARAWERHSSYSCQVTHEGHTVEFTKSLSRADCS
notes: Original MOR8457 VH + mouse wild type IgG1 constant; original VL + mouse wild type lambda constant
One may read the kon as a measure of how fast the partners come together. For orientation: Kd means the constant that tells how readily two partners part at equilibrium. Lower therefore signals higher affinity. With B2, the binding result in assay [3] and in [4] was “no binding (tested: 0.25-1 nM PDGF)” throughout. Moreover, the kon in assay [5] came out at 1.12e+07 M⁻¹ s⁻¹; in assay [6], 2.48e+07 M⁻¹ s⁻¹; in assay [7] it was 1.42e+07 M⁻¹ s⁻¹; in assay [8] it was 5.9e+06 M⁻¹ s⁻¹. Further, the Kd in assay [9], in [10], in [11] and in assay [12] was less than 0.01 nM in each case. In assay [13], the “IC50 (read off the curve)” value was approximately 0.04 nM.

These data come from patent US20140134176A1 (Pfizer, published 2014).
